Results on 2 molecules are retold here after paper doi:10.1101/2024.11.22.624932.

A word on the stoichiometry N: it is the number of molecules, sites or subunits per partner or assembly.

Numbering of substitutions follows the chain as printed. In names and notes the source's numbering stands.

Test [1] has as its target synthetic nanobody (sybody) Sb44. Nature of the test: SEC. For orientation: In gel filtration, larger molecules generally elute earlier.
The target in test [2] is Sb44 V100C. Nature of the test: SDS-PAGE under non-reducing and reducing conditions.
In test [3] the target is Sb44 V100C. The test can be described thus: SEC.

B1: synthetic nanobody (sybody) Sb44 (VHH)
VHH: QVQLVESGGGLVQAGGSLRLSCAASGFPVGRASMWWYRQAPGKEREWVAAISSYGWVTAYADSVKGRFTISRDNAKNTVYLQMNSLKPEDTAVYYCEVSVGTGYRGQGTQVTVSA
On to B1, for which, in test [1], the stoichiometry N is 2.

B2: Sb44 V100C (VHH)
VHH: B1 VHH with V100C
In the case of B2, the stoichiometry N with Sb44 V100C [2] and in the test with Sb44 V100C [3] was 2 in each case.
